Experimental data as given in article PMC6261967.

Tests used:
[1] = target: the ribosome (40S + 60S subunits) (human (endogenous in HeLa)) (UniProt P62753); experiment: co-sedimentation; puromycin-treated crude ribosomal preparation resolved by sucrose-gradient centrifugation; ribosome fractions combined for western blot (Supplementary Fig. S1)
[2] = target: 60S ribosomal subunit (human (endogenous in HeLa)) (UniProt P40429); experiment: co-sedimentation; ribosome fractions from HeLa cells, first and second 10-40% sucrose gradient, 20 mM Tris-HCl pH 7.5, 500 mM KCl, 4 mM magnesium acetate, 2 mM DTT, 4 °C; fractions and the purified subunits blotted for PABP, without GST-Paip2 treatment
[3] = target: 40S ribosomal subunit (human (endogenous in HeLa)) (UniProt P62753); experiment: as above

molar ratio of PABP to the ribosome (40S + 60S subunits) (western blot) [1]: 2
molar ratio of subunit to PABP in the purified subunit (western blot) [2]: 10
molar ratio of subunit to PABP in the purified subunit (western blot) [3]: 10
Substance: poly(A)-binding protein (PABP), endogenous in HeLa ribosome preparations (from UniProt P11940 1-636) (natural protein)
